This data set deals with T1, DEK (Homo sapiens, UniProt P35659 P35659:1-375).
T1 sequence: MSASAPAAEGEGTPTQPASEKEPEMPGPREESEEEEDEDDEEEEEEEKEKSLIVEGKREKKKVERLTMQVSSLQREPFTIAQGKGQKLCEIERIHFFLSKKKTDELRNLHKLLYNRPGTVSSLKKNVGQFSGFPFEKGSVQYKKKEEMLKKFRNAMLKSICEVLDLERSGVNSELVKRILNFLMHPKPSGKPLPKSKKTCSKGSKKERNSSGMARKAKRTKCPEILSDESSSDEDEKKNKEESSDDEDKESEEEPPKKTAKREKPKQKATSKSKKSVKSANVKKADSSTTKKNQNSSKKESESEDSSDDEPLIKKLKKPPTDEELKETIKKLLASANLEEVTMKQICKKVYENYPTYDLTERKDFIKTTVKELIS
Briefly: Southwestern blot on denatured DEK with salmon sperm DNA competitor; 300 mM NaCl wash; not quantitated; clones preselected by dot blot filter binding. Conditions: tags: His-tag (pBlueBacHis2A baculovirus, HighFive cells, Ni-NTA purified); label: 5'-32P. Here is the method:
After determining the sequences of individual aptamer clones, the corresponding DNA oligonucleotides with and without 5′ and 3′ priming sequences were ordered from IDT (Coralville, Iowa), and radiolabeled with ³²P according to the NEB T4 Kinase kit protocol as above. Binding was then tested using a southwestern blot of purified DEK protein. A conventional western blot was performed using PVDF Immobillon P (EMDMillipore, Darmstadt, Germany). After the transfer, the membrane was soaked in PreHyb buffer [(10 mM Hepes (pH 7.9), 100 ug/mL salmon sperm DNA (Sigma-Aldrich, St. Louis, Mo.), 5% bovine serum albumin (Sigma-Aldrich, St. Louis, Mo.)] for 30 min on the shaker at room temperature to block the membrane. The PreHyb buffer was then removed and 5 mL of Hyb Buffer [(10 mM Hepes (pH 7.9), 50 mM NaCl, 1 mM EDTA, 1 mM DTT, 0.25% BSA, 2 ug/ul salmon sperm DNA, 50 million CPM aptamer)] was added and incubated on the shaker at room temperature for one hour. The Hyb Buffer was removed and the membrane was washed 3× on the shaker at room temperature for 20 min with wash buffer [(10 mM Hepes (pH 7.9), 300 mM NaCl, 1 mM EDTA, 1 mM DTT, 0.25% BSA)]. The membranes were dried and exposed on a Typhoon Phosphor imager (GE Healthcare, Pittsburgh, Pa.) cassette overnight to visualize the radiolabeled DNA bound to the bands corresponding to DEK protein. […] No quantitation was determined.

We go through 2 molecules from US20180187196, “INHIBITORS OF DEK PROTEIN AND RELATED METHODS” (THE REGENTS OF THE UNIVERSITY OF MICHIGAN, published 2018).

B1: DEK aptamer 64 (ssDNA)
DNA: ATAGGGAGTCGACCGACCAGAAGGGGTTAAATATTCCCACATTGCCTGCGCCAGTACAAATAGTATGTGCGTCTACATCTAGACT
Regarding B1, the binding result is “binds”.

B2: DEK aptamer 85 (ssDNA)
DNA: ATAGGGAGTCGACCGACCAGAATACCGTGGCATCTGGTTGTAGCATCACGTCTTATGCGGCCGTATGTGCGTCTACATCTAGACT
In the case of B2, the binding result is “binds”.
